Assay: yeast display, Sf9 membrane polyspecificity reagent, FACS + sequencing; frameworks hold sequencing errors
Summary of the method: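 Nanobodies came from a synthetic yeast display library in Saccharomyces cerevisiae BJ5465, induced with galactose for 36–48 hours and stained for 1 hour at 4 °C with 10% biotinylated, detergent-solubilized Sf9 membrane reagent. Cells were enriched on streptavidin microbeads and then FACS-sorted, with low and high (top ~1%) gates set on anti-HA fluorescence for expression and streptavidin fluorescence for reagent binding. Each polyreactivity label reflects the gate a clone came from. Genes were amplified by colony PCR, sequenced by MiSeq 2 × 250 and filtered by CDR length.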

| Sequence | polyreactivity (PSR sort gate) |
| --- | --- |
| QVQLVESGGGLVQAGGSLRLSCAASGRTFLVYAMGWYRQAPGKERDLVAAITGSGTSTYYADSVKRRFTISRDNGKNTVYLQMNSLKAEDTAVYYCAAEVRLGTYGYDYDYWGQGTQVTVSS | high polyreactivity |
| QVQLVESGGGLVQAGGSLRLSCAASGRTFLVYAMGWYRQAPGKERELVAAISFSDGITYYADSVKGRFTISRDNAKNTVYIQMNSLKPEDTAVYYCATEILDYYYGSEYDYWGQGTQVTVSS | high polyreactivity |
| QVQLVESGGGLVQAGGSLRLSCAASGRTFLWYAMGWYRQAPGKEREFVAAITKSSGSTYYADSVKGRFTISRDNAKNTVFLQMNSLKPEDNAVYYCAKRPFSTRYDYWGQVTQVTVSS | high polyreactivity |
| QVQLVESGGGLVQAGGSLRLSCAASGRTFLYNAMGWYRQAPGKERELVAAISWNGGSTYYADSVKGRFTISRDNAKNTVYLQMNSLKPEDTAVYYCNAVYRPRVGRRFPTGYDYWGQGTQVTVSS | high polyreactivity |
| QVQLVESGGGLVQAGGSLRLSCAASGRTFNAYAMGWYRHAPGKERELVAAISSGGSTYYADSVKGRFTISRDNAKNTVYLLMNSLKPEDTAVYYCNKVYGWRQFDYWGQGTQVTVSS | high polyreactivity |
| QVQLVESGGGLVQAGGSLRLSCAASGRTFNAYTLGWYTQAPGTERELVAAITSSGGNTYNADSVKGRFTISRDNAKNTVYLQMNSLKPEETAVYYCNTVYLYGTHDYWGQGTQVTVSS | low polyreactivity |
| QVQLVESGGGLVQAGGSLRLSCAASGRTFNAYTMGWYRQAPGKERELVAAITRSGARTYYADSVKGRFTISRDNAKNTVYLQMNSLKPEDTAVYYCNKAAFNYYLYGYWGQGTQVTVSS | high polyreactivity |
| QVQLVESGGGLVQAGGSLRLSCAASGRTFNEYAMGWYRQAPGKERELVAAISSSGDSTYYADSVKGRFTISRDNAKNTVYLQMNSLKPEDTAVYYCAAQVVVWYPYVYFPGYDYWGQGTQVTVSS | low polyreactivity |
| QVQLVESGGGLVQAGGSLRLSCAASGRTFNFNTMGWYRQSPGKERELVASITSGGSTNYADSVKGRFTISRDNAKNTVYIQMNILKPEDTAVYYFAVTVSGPYAYDYWGQGTQVTVSS | low polyreactivity |
| QVQLVESGGGLVQAGGSLRLSCAASGRTFNGNAMGWYRQAPGKERELVAAISWSGGSTYYADSVKGRFTISRDNAKNTVYLQMNSLKPEDTAVYYCNADYFAWDLMYYWGQGTQVTVSS | low polyreactivity |
| QVQLVESGGGLVQAGGSLRLSCAASGRTFNGYAMGWSRQAPGKERELVAALTGSVGSTYYADSVKGRFTISRDNAKNPGELQLNSLKPDDTAVYYCATRWKATRARYDYWGQGTQVTVTS | high polyreactivity |
| QVQLVESGGGLVQAGGSLRLSCAASGRTFNGYAMGWYRQAPGKEREFVAAITSRGGSTYYADSVKGRFTISRDNAKNTVYLQMNSLKPEDTAVYYCAARAYTALSWRRYGYWGQGTQVTVSS | high polyreactivity |
| QVQLVESGGGLVQAGGSLRLSCAASGRTFNHYAMGWYRQAPGKERELVPGITISGGSTYYADSVKGRFTISRDNAKNTVYLQMNSLKPEDTAVYYCNAVYDYYRQSNWTMDYWGQGTQVTVSS | low polyreactivity |
| QVQLVESGGGLVQAGGSLRLSCAASGRTFNKYAMGWYRQAPGKERELVAAINTSGGSTYYADSVKGRFTISRDNAKNTVYLQMNSLKPEDTAVYYCAAQSRSVYGRSYGYWGQGTQVTVSS | high polyreactivity |
| QVQLVESGGGLVQAGGSLRLSCAASGRTFNLNAMGWYRQAPGKEREFVAAISNSGVRTYYADSVKGRFTISRDNAKNTVYLQMNSLKPVDTAVYYCARTYQVGDSIDDYWGQGTQVTVSS | low polyreactivity |
| QVQLVESGGGLVQAGGSLRLSCAASGRTFNLYAMGWSRQAPGKERELVARITSGGSTNYADSEKGRFTISRDNAKNTVYLQMNSLKPEDTAVYYCAASSYNRGDYWGQGTQVTVSS | high polyreactivity |
| QVQLVESGGGLVQAGGSLRLSCAASGRTFNPNAMGWYRQAPGKERELVATISWSSDSTYYADSVKGRFTISRDNAKNTVYLQMNSLKPEDTAVYYCNAQLSYHWYSPGYDYWGQGTQVTVSS | low polyreactivity |
| QVQLVESGGGLVQAGGSLRLSCAASGRTFNSTAMGWYRQAPGKERELVAAITRSGGSTYYADSVKGRFTISRDYAKNTVYLQMISQKPEDTAVNYCITTRWTQRTSFDYWGQGTQVTVSS | low polyreactivity |
| QVQLVESGGGLVQAGGSLRLSCAASGRTFNSYAMGWYRQAPGKERELVAAISWNTGSTYYADSVKGRFTISRDNAKNTVYLQMNSLKPEDTAVYYCAAEGELYTAFGTLSFDYWGHGTQVTVSS | high polyreactivity |
| QVQLVESGGGLVQAGGSLRLSCAASGRTFNSYAMGWYRQSPGKERELVADITSSGGSTYYADSVKGRFTISRDNAKNTVFLQMNSLIPEDTALYYCAADGYTRLPTYLRVNHRSLDYWGQGTQVTVSS | low polyreactivity |
| QVQLVESGGGLVQAGGSLRLSCAASGRTFNTNAMGWYRQAPGKERELVAAISGGGSTYADSVKGRFTISRDNAKNTVYLQMNSLKPEDTAVYYCKAYPPYLYATYDYWGQGTQVTVSS | low polyreactivity |
| QVQLVESGGGLVQAGGSLRLSCAASGRTFNVYAMGWYRQAPGKERELVAAISKSGGSTYYADSVKGRFTISRDNAKNTVYLQMTSLKPEDTAVYYCNRYRFVRQVRGGGLPYDYWGQGTQVTVSS | high polyreactivity |

| Sequence | polyreactivity (PSR sort gate) |
| --- | --- |
| QVQLVESGGGLVQAGGSLRLSCAASGRTFNVYAMGWYRQAPGKERELVAVITNGGSTNYADSVKGRFTISRDNAKNTVYLQMNSLKPEDTAVYYCAADYYASLTREDRDDYWGQGTQVTVSS | low polyreactivity |
| QVQLVESGGGLVQAGGSLRLSCAASGRTFNWYTMGWYRQAPGKERELVARINGRGGSTYYADSVKGRFTISRDNAKNTVYLQMNSLKPEDTAVYYCAADLHKLARYDYWGQGTQVTVSS | high polyreactivity |
| QVQLVESGGGLVQAGGSLRLSCAASGRTFPAYAMGWYRQAPGKERELVAAISYSGGRTRYADSVKGRFTISRDNAKNTVYLQMNSLKPEDTAVYDCNRVIPTQSLRDYYWGQGTQVTVSS | high polyreactivity |
| QVQLVESGGGLVQAGGSLRLSCAASGRTFPAYAMGWYRQAPRKERELVARISYSGGNTYYADSVKGRFTISRDNAKNTVYLQMNSLKPEDTAVYYCAATRSHYPYRSGGDYWGQGTQVTVSS | low polyreactivity |
| QVQLVESGGGLVQAGGSLRLSCAASGRTFPFNAMGWYRQAPGKERELVAGISSGGRTNYADSVKGRFTISRDNAKNTVYLQMNSMQPEDTAVYYCAARYQPSRAARWTLDYWGQGTQVTVSS | high polyreactivity |
| QVQLVESGGGLVQAGGSLRLSCAASGRTFPFYAMGWYRQAPGKEREFVAAITASGDSTYYADSVKGRFTISRDNAKNTVYLQMNSLKPEDTAVYYCAADLPVWYVTRYDYWGQGTQVTVSS | low polyreactivity |
| QVQLVESGGGLVQAGGSLRLSCAASGRTFPGNAMGGYRQAPGKERELVAAISSRGGSTYYADSVKGRFTISRDNAKNTVNLQMKSLKPEDTAVYYCNAASNYRVRRTYHGDYWGLGTQVTVSS | high polyreactivity |
| QVQLVESGGGLVQAGGSLRLSCAASGRTFPGNAMGWYRQAPGKEREFFAAITRSGGSTYADSVKGRFTISRDNAKNTVYLQMNSLKPEDTAVSYCAATFKWYSHTKPRFDYWGQGTKVTVSS | low polyreactivity |
| QVQLVESGGGLVQAGGSLRLSCAASGRTFPGNAMGWYRQAPGKERELVAAISKSSSRTYYADSVKGRFTISRDNAKNTVYLQMNSLKPEDTAVYYCAASSFNNGHRYDYWGQGTQVTVSS | high polyreactivity |
| QVQLVESGGGLVQAGGSLRLSCAASGRTFPGNAMGWYRQAPGKERELVAAISSRGGSTYYADSVKGRFTISRDNAKNTVYLQMNSLKPEDTAVYYCARRYLPYGGYYYWGQGTQVTVSS | high polyreactivity |
| QVQLVESGGGLVQAGGSLRLSCAASGRTFPGNAMGWYRQAPGKERELVAAISWSGTRTYYADSVKGRFTISRDNAKNTVYLQINSLKPEDTAVYYCAARRYGVRSYGFDSWGQGTQVTVSS | high polyreactivity |
| QVQLVESGGGLVQAGGSLRLSCAASGRTFPGNAMGWYRQAPGKERELVATITWSSGRTHYADSVKGRFTISRDNAKNTVYLQMNSLKPEDTAVYYCAAKLIVAVGGFYYWGQGTQVTVSS | low polyreactivity |
| QVQLVESGGGLVQAGGSLRLSCAASGRTFPGNDMGWYRQAPGKERELVAAISGNGGNTNYADSVKGRFTISRDNAKNTVYLQMNSLKPEDTAVYYCKADVPSDGYPGYPGGFESWGQGTQVTVSS | low polyreactivity |
| QVQLVESGGGLVQAGGSLRLSCAASGRTFPGYAMGWYREAPGKERELVAAISSSGGSTYYADSVKGRFTISRDNAKNTVYFQMNSLKPEVTAVYSCAVPYWYGRGHCYWGQGTQVTVSS | low polyreactivity |
| QVQLVESGGGLVQAGGSLRLSCAASGRTFPGYAMGWYRQAPGKERELVAAISNSGGRTYYADSVKGRFTISRDYAKNTVYLQMNSLKPEDTAVYYCNATTDNGSNKRYYYWGQGTQVTVSS | high polyreactivity |
| QVQLVESGGGLVQAGGSLRLSCAASGRTFPGYAMGWYRQAPGKERELVAGISYRGGSTYYADSVKGRFTISRDNAKNTVYLQMYSLKPEDTAVYYCARDYSRHKGDYWGQGTQVTVSS | low polyreactivity |
| QVQLVESGGGLVQAGGSLRLSCAASGRTFPINTMGWSRQAPGKEREFVAAITLGGRTYYADSVKGRFTISRDNAKNTVYLQMNSLKPEDTAVYYCAVAQPGYWLYRHFLPGSDYWGQGTQVTVSS | high polyreactivity |
| QVQLVESGGGLVQAGGSLRLSCAASGRTFPIYAMGWYRQAPGKERELVAAITGGGSTNYADSVKGRFTISRDNAKNTVYLQMNSLKPEDTAVYYCNARWFWYRPGGSRVDYWGQGTHVTVSS | high polyreactivity |
| QVQLVESGGGLVQAGGSLRLSCAASGRTFPIYAMGWYRQAPGKERELVAAITYSGGSTYYADSVKGRFTISRDNAKNTVYLQMNSLKPEDTAVSYCAVDGTKPYWHQRYDYWGQGTLVTVSS | low polyreactivity |
| QVQLVESGGGLVQAGGSLRLSCAASGRTFPIYAMGWYRQSPGKERELVAAITYSGGSTYYADSVKGRFTISRDNANNKVYLKMNSLKPEDTSVYYCAVDGTKPYWHQRYDYWGQGTQVTVSS | low polyreactivity |
| QVQLVESGGGLVQAGGSLRLSCAASGRTFPLNAMGWYRQAPGKERELVAAITWSGGRTYYADSVKGRFTISRDNAKNTVYLQMNSLKPEDTAVYYCNVDKVTSWYYYGYWGQGTQVTVSS | low polyreactivity |

Reference: the nanobody polyreactivity screen of Harvey et al. (2022)
